For one protein, Km results are on record in PMC2701924, “Molecular cloning and expression of a novel trehalose synthase gene from Enterobacter hormaechei” (Microbial Cell Factories, 2009).

Substrate in the data set: OC[C@H]1O[C@H](O[C@H]2O[C@H](CO)[C@@H](O)[C@H](O)[C@H]2O)[C@H](O)[C@@H](O)[C@@H]1O
Kind of data set: initial rates, ion chromatography of products, Lineweaver-Burk. The data set is classed as biochemical, Enterobacter hormaechei. As to conditions: substrate 1-200 mM, pH and temperature not stated for kinetics (standard assay 50 mM phosphate pH 6, 37°C), reverse reaction.

B1: recombinant TreS (Enterobacter hormaechei trehalose synthase) (Enterobacter hormaechei) (protein)
chain: MAGWHTRAIIYQIDTALFYDLNGDGCGDIAGITAKLRYIRRMGATVIWITPFYLTPFLDEGYDVSDHLQVDPRFGKLNDIIAFIEQARELGMQVIIELLIQHTSDAHPWFQQARRNPQSPYRDYYLWSDTDDDDTPPMFPGVEKSIWTWDDEAGQYYRHMFYHHEPDLNLASPAVLKEVENIIIFWLKLGVSGFRLDAASHLTKQAGRGDEKRGLWILEHLRCLIGQRNPDAILLGEVDVEVEAYKDYFGQNDRLNLVLNFWLNKYFYVSLAEKSARPLRNAVKKMIVPPDSCCFANWLRNHDELDLEGIGKKAKQTVIDTFAPDEEMSVYQRGIRRRLAPMLNGDRKRLAFCHAVLFSLPGVPVMRYGDEIGMGDDLDLEERYAVRTPMQWAGSQGGGFSDADPETFVAPMIDHGPYRYQKINVADSLLHRNSLLHCIIDIANTRSEFPEIGVAPFRLINIDSDAVLGIYYETDTRSILTFVNFSDKPVNFTARGIRHATWTACLADKRYDDALVCGKTVALNLSGYGYRWFWTDRTALR
notes: pET30a(+) Nco I/Not I; 46 additional N-terminal residues incl; 6-His tag kept; about 65 kDa on SDS-PAGE; expressed in E. coli BL21(DE3) plysS, Ni-NTA
What is called Km is the concentration of substrate that gives half-maximal velocity. As for B1, the Km was determined as 75 mM.
